# According to the DeepSol protein solubility set:
# Assay: soluble on expression in E. coli; label from the status in PepcDB or PDB records
row,Sequence,soluble on expression in E. coli
1,SELDAKLNKLGVDRIAISPYKQWTRGYMEPGNIGNGYVTGLKVDAGVRDKSDNNVLDGIVSYDRAETKNAYIGQINMTTAS,soluble
2,MKFELDTTDGRARRGRLVFDRGVVETPCFMPVGTYGTVKGMTPEEVEATGAQIILGNTFHLWLRPGQEIMKLHGDLHDFMQWKGPILTDSGGFQVFSLGDIRKITEQGVHFRNPINGDPIFLDPEKSMEIQYDLGSDIVMIFDECTPYPADWDYAKRSMEMSLRWAKRSRERFDSLGNKNALFGIIQGSVYEDLRDISVKGLVDIGFDGYAVGGLAVGEPKADMHRILEHVCPQIPADKPRYLMGVGKPEDLVEGVRRGIDMFDCVMPTRNARNGHLFVTDGVVKIRNAKYKSDTGPLDPECDCYTCRNYSRAYLHHLDRCNEILGARLNTIHNLRYYQRLMAGLRKAIEEGKLESFVTDFYQRQGREVPPLNVD,soluble
3,LTNRGLKQVGWYLPAAQKTKKTAIVVHGFTNDKEDMKPYAMLFHDLGYNVLMPDNEAHGESEGNLIGYGWNDRLNVMAWTDQLIKENPESQITLFGLSMGAATVMMASGERLPAQVTSLIEDCGYASVWDELKFQAKAMYNLPAFPLLYEVSALSKIRAGFSYGEASSVKQLAKNKRPTLFIHGDKDDFVPTKMVYDNYKATKGPKEILIVKGAKHAKSFETNPEQYQKKIAAFLKKVEK,not soluble
4,MKTGPLNESELEWLDDILTKYNTDHAILDVAELDGLLTAVLSSPQEIEPEQWLVAVWGGADYVPRWASEKEMTRFMNLAFQHMADTAERLNEFPEQFEPLFGLREVDGSELTIVEEWCFGYMRGVALSDWSTLPDSLKPALEAIALHGTEENFERVEKMSPEAFEESVDAIRLAALDLHAYWMAHPQEKAVQQPIKAEEKPGRNDPCPCGSGKKFKQCCLH,not soluble
5,GSMAAAGNKSINAKLVLLGDVGAGKSSLVLRFVKDQFVEFQESTIGAAFFSQTLAVNDATVKFEIWDTAGQERYHSLAPMYYRGAAAAIIVFDVTNQASFERAKKWVQELQAQGNPNMVMALAGNKSDLLDARKVTAEDAQTYAQENGLFFMETSAKTATNVKEIFYEIARRLPRVQPTEN,soluble
6,AIATGVYADAVLVSVTVGDTVTLHTAGVKNLQPADVKWYFNDIRIAQLDGDLRFNCTDIQCNDRTEIFIDRLRLDRKTGALTIVNITNTHSGVYQLVVIGGGGTIFNVTVHDDPATHYNQVKKNQGESVTFNPGVRRDLIVVLKCLLNNTLIAEISVNQSQICADVQCKERFTDRLKLDNESASLTITNTNITDSGNYTSVILISSDRRFSITREKRFSLTVTSLSSSQPSGGAIAGIVVMLLLLL,soluble
7,MSSEPTSSIESDNLRRSKRKKFKLDFVAAAHGNNQKKSRKDPHGQGDDDDDTFDDDLNHFEPLSVLTEQDVSMEMFEDDEEDTVSRRRTRRSTAHFQDYQEPDRWIENSGPHACHKCPSRYESKSSLANHTKMHLGEKRKFACELCDFSASTLKSLTHHNNIHQNFGVLSQQTSPVIPVASSADSTLNSSINSTGCQINAPPAPKLDEEAPIAVESVVVHHEDVAEFDTTPPPILEREDDGPPVLIREAPVRKSNRPMKPTQKAQKMTKQRERKSKTVESPKGSLPSSSASSVTPPPVRKDVEKPKIFVKTTKKNLKKTMKITKVRQRCPHCPFTTSTVTRLNRHSGGHKLKEGYICPSENCNFMCRKAGFLQKHYILHKGTLPWPPEYVKKGGAKMKRTFPESEEKKIEVTEKVQKMKKMHKRRANTVQVVAKAQLKSYIKVEVDDVIFKKCNIGECEFLTQTLTQLIVHKVKTHDTKTAFPQHRFLCLTCGHRAKSYAALRTHKLIEHTSTHKRFHRTYYLKECVGDKFFVKYNLSKVQEEVKEEPKEADGDESGDESFDSMCPASDVHPETLAAIEMKDVFFCCNMCPYKAPTMNRCQRHYDKHFKNDEFKCQYCSWSSRSKEVIVNHEKLHPTVVVANTNEAPVVKNEIEAKVEVLSKTVSSPVECTEESSLSKSIQLWCQREKLRHPELDEQFTRKMIDGVKGFQCTDCPYTSKYRGDMRSHKKRHDIEQLYRCVQCTYTTNRPVSLKDHLKQHAIVNMSIADIKSRRVVVNQGVKIGMRRGVGKDKIYCCDKCPYVTLALGCLWRHHRNHRDTAKINICSNCSYSSIDQRKMEEHTIIHLGLGLNEAVPFVKRVDQKGRPVSSLTDLNSEKMNERKSTKRKMLDKVEKMEVGEDEEDDEESVDKGTDDGDYKQRPEKKRKQSSEEPASDPELFGSSSQPTRQLSERATRNRINYSLLSKNGSGKPTPSTSSANLEKLAGSSGGASSESPEPDESVEVSHWKIRTFLRSEYGVKESLKCPDCPYKSSEPDVLEKHRYYHMTKTTPRPYACSDCTFNTYTPTALLQHLKLHSEGVYFDPMVKKHMKHRKGDSIPPGVKGYYCKNCSFKTSIHRNFIEHSAYHRQQLINRINITLKRQPPRIEYQRPKLKHQFVAKNAKYCKKCTFKCVSQSNFIEHLDRHGWNQLYKCYSCDYSDNTKSVVDFHQLNHHIVKDQTLHSICQSAKFRLENGVIQIPETEKSKPTPDEFVSKTRGLLKCPSCEYFCHVSSELAFHMSVHHLTEPNARETISYLHMGLVPPKATVTTV,not soluble
8,MAHHHHHHMRCVRRSVLGSRGLKRPMFNYTRIFSMGITQHTFTGALLEDLRAGGCCGDQTEDNPGSSLRHGELDHFESPEAEAAHVEKVNTVVDDLFSRMPLPEDPMGAALAPTKEEMEEKAEWDVLKEVVRERYQRKIALKEAERVRIDKAMQHYRVDKDIEGGVSGVTGATGDSEKIRKKIERMKQEIVELERRLEAANHDDNL,not soluble
9,MARNNNQVKRDAAGRLFFLLDRQYRLVIQQVVALKPHVLAIAARQGMFVAKAYRFPVAAARHAWLLAALRKAGFSAAPAPMPIGRGGVVEAGGCYWLLTEYVAGARPISFAAWADAADGLHLLERYHTITANIASSKQEAMGLPRAQLYDKWRRRYEEFCRHLPVVETIMDKEDILFTLSWADYCLSTCREHAPELTADSAAIIHGDVASHNFLRTTTGQMYLIDYDAAALASPGLDYCQYANRLLPYIGWSYSTLARFAPLRRWLEKRWFLHALLFPADVFREWRSAAARRRPLVFDRKRRERFVRRLYAMLQ,not soluble
10,MIHRPTAKENAKRFASVIQALHACETACAYCATECGKNGHAEAMGRCVSLCTDCARFCALARDFLERNSEFAELLLEDCAEICQQTMEECVHHAEGHCRKCAEACEQCKKACLEVAGAAPLSSAQQKELLAALLEHHHHHH,not soluble
11,MTKKDKKEVKVQTVTTEDGETVKVFEDLQGFETFIANETEDDDFDHLHCKLNYYPPFVLHESHEDPEKISDAANSHSKKFVRHLHQHIEKHLLKDIKQAVRKPELKFHEKSKEETFDKITWHYGEETEYHGRPFKIDVQVVCTHEDAMVFVDYKTHPVGAN,soluble
12,NGQSDVKHIGILQYVEHPSLTATRKGFIKELAKEGYKDGKNIKIEYKNAQGDQSNIQSISEKLIKDNKLVLGIATPAAQSLTTVSTETPILFTAVTDPVSAELVKSMKKPEGLATGTSDMSPIKKQVSLLRKVMPKVKRVGIMYTTSERNSEVQVKQAKKIFQEAGIKTSVKGISSTNDVQDTAKSLMSKTEVIFVPTDNIIASSVTLLGNLSKELKVPVVGGSADMVPSGLLFSYGADYEALGRQTARQAVKILKGKDVAKVPSEYPQNLKVVVNEDMAKELGIDVSSIK,not soluble
13,MSLNDKVTAVRDVWRYEQGEISKVEDRMVTEFPLTVILNGSEFVTLVCTPEHIEELVIGFLASEGVIRFQKEIKRFTIDESLGFVYVDLVHPETLDQKDYTKRVIGSCCGKGRHFYFQQDVKTAKTAVSQIKISPEACLALMKDMQQGSGTFQDTGGVHNAALCDTEKLLLMRTDIGRHNALDKLYGHCLLNGMSVRDKLIVFSGRISSEVLLKAAKIGVSIVISKSAPTELAIQMAEELNITAIGFVRNGSFNVYTHPERIREEGHHHHHH,soluble
14,LTDIRKKAATTLEKQIKQELNQLYMEKAIFSVHFESDKTELTESGQDSVVFYMSTNPGEPLKPLAKIASGGELSRMMLALKTIFSRHQGITSIIFDEVDTGVSGRVGQAIAEKIYAVSVGSQVLCISHLPQVAAMANHHYYITKKVQNKRTTTSVTILKGEQKVEEISRMIAGIEVTELTKQHAKEMIQQAEKVKQTY,not soluble
15,MIDLKELKKYCNHSYLTIRNDKIIVGNKGLARLSKEKMRKIEMDFEIPVVYSRVFEEISERMGRYVSKNNIISPKDKILVGLSGGKDSLALLHLLEPYRRKYGVQIYAVTVDLNINGIRPWTESNKNVKMISEHCKNLNIPHEIIAHDGNVVEMSKILSENTKGIEYSPCFSCSMVRRHVLTNYAKNNFESDSNVKIAIGHTLEDNSDTIMANIFKGNVIKALEPIKNFNKTDVDFKDFKLNLKSCCMIRPMLNVSEEKIVKALVECDIEYYKDKDECPYSRHNGDGIRKKSHEVLKSLEEDVPNIREMIISSILNSIEQYKQK,not soluble
16,MGSDKIHHHHHHMAAWRTVVIATSCHLRVRDRQLVIESREGERTQLPLADIGVVIVENPQVTLSAALLSALAQEGTALMSCDSSHLPDGVFAPFGTHSRHTRAARVQAVWSEPFKKRCWQKIVRAKVSSQAEVLRRVGAEDAARRLENLVGKVTSGDTTGVEAQAAQVYWRSLFVNFKRWDGGLDARNGGLNYGYAVLRGALGRAIAGAGLIPAFGLHHAGELNSFNLADDLIEPFRPFVDLLVWGLFLERTGDDPLTREERMRIAQILGESCIMTERYETLLSATQIIARSLVSAGEQKESRRLILPWMGEDDVQGEVYEADGDV,not soluble
17,MAKLLYVQTSGIDTPERLYAPFVLAMTAKAMGDDAIIYFVIKGVTVVKKDNAEKIKMGNFPPLSELMKQARESGVEMMVCDRSSELLGIDKGEIVDGVKIVGAATLNQLVLEADGVLYF,not soluble
18,AATSRDALPNTEASGPTHSKEIPALTAVETGATNPLVPSDTVQTRHVVQHRSRSESSIESFFARGACVTIMTVDNPASTTNKDKLFAVWKITYKDTVQLRRKLEFFTYSRFDMELTFVVTANFTETNNGHALNQVYQIMYVPPGAPVPEKWDDYTWQTSSNPSIFYTYGTAPARISVPYVGISNAYSHFYDGFSKVPLKDQSAALGDSLYGAASLNDFGILAVRVVNDHNPTKVTSKIRVYLKPKHIRVWCPRPPRAVAYYGPGVDYKDGTLTPLSTKDLTTY,soluble
19,MGHHHHHHGGHMSLSDDNSHSSDTISNKKGFFSLLLSQLFHGEPKNRDELLALIRDSGQNDLIDEDTRDMLEGVMDIADQRVRDIMIPRSQMITLKRNQTLDECLDVIIESAHSRFPVISEDKDHIEGILMAKDLLPFMRSDAEAFSMDKVLRQAVVVPESKRVDRMLKEFRSQRYHMAIVIDEFGGVSGLVTIEDILELIVGEIEDEYDEEDDIDFRQLSRHTWTVRALASIEDFNEAFGTHFSDEEVDTIGGLVMQAFGHLPARGETIDIDGYQFKVAMADSRRIIQVHVKIPDDSPQPKLDEEGGS,soluble
20,MFEFKHIKAFDRAFADNPGPMVVFATPGMLHAGQSLQIFRKWAGNEKNMVIMPGYCVQGTVGHKILSGQRKLEMEGRQVLEVKMQVEYMSFSAHADAKGIMQLVGQAEPESVLLVHGEAKKMEFLKQKIEQELRVNCYMPANGETVTLPTSPSIPVGISLGLLKREMAQGLLPEAKKPRLLHGTLIMKDSNFRLVSSEQALKELGLAEHQLRFTCRVHLHDTRKEQETALRVYSHLKSVLKDHCVQHLPDGSVTVESVLLQAAAPSEDPGTKVLLVSWTYQDEELGSFLTSLLKKGLPQAPS,soluble
